One block for each substance: values may come before it.
Legend:
[1] = target: dn-collagen or synthetic peptide (sensor chips with a low or medium density); assay: SPR (Biacore), bivalent antibody binding, avidity model
[2] = target: human heat-denatured collagen type IV (human); assay: SPR, high density denatured collagen IV surface, avidity model (second binding step), CLAMP
[3] = target: biotinylated synthetic collagen peptide α1(IV) P1337-Y1352 (human); assay: SPR, low density biotinylated peptide surface on streptavidin, simple 1:1 interaction model, CLAMP
[4] = target: human heat-denatured collagen type IV (human); assay: SPR, medium density denatured collagen IV surface, avidity model, CLAMP
[5] = target: human heat-denatured collagen type IV (human); assay: SPR, medium density denatured collagen IV surface, avidity model (second binding step), CLAMP
[6] = target: human heat-denatured collagen type IV (human); assay: SPR (Biacore), low density dn-collagen on CM5 chip, monomeric (one Fab region) binding
[7] = target: human heat-denatured collagen type IV (human); assay: SPR, high density denatured collagen IV surface, avidity model, CLAMP
[8] = target: biotinylated synthetic collagen peptide α1(IV) P1337-Y1352 (human); assay: SPR, high density biotinylated peptide surface on streptavidin, avidity model (second binding step), CLAMP
[9] = target: biotinylated synthetic collagen peptide α1(IV) P1337-Y1352 (human); assay: SPR, high density biotinylated peptide surface on streptavidin, avidity model, CLAMP
[10] = target: human heat-denatured collagen type IV (human); assay: SPR (Biacore), medium density dn-collagen on CM5 chip, monomeric (one Fab region) binding
[11] = target: human heat-denatured collagen type IV (human); assay: SPR (Biacore), high density dn-collagen on CM5 chip, monomeric (one Fab region) binding
[12] = target: biotinylated synthetic collagen peptide α1(IV) P1337-Y1352 (human); assay: SPR (Biacore), low density biotinylated peptide on streptavidin chip, monomeric D93 Fab
[13] = target: biotinylated synthetic collagen peptide α1(IV) P1337-Y1352 (human); assay: SPR (Biacore), high density biotinylated peptide on streptavidin chip, monomeric D93 Fab
[14] = target: biotinylated synthetic collagen peptide α1(IV) P1337-Y1352 (human); assay: SPR (Biacore), medium density biotinylated peptide on streptavidin chip, monomeric D93 Fab
[15] = target: biotinylated synthetic collagen peptide α1(IV) P1337-Y1352 (human); assay: SPR, medium density biotinylated peptide surface on streptavidin, avidity model (second binding step), CLAMP
[16] = target: biotinylated synthetic collagen peptide α1(IV) P1337-Y1352 (human); assay: SPR, medium density biotinylated peptide surface on streptavidin, avidity model, CLAMP
[17] = target: human heat-denatured collagen type IV (human); assay: SPR, low density denatured collagen IV surface, avidity model (second binding step), CLAMP
[18] = target: human heat-denatured collagen type IV (human); assay: SPR, low density denatured collagen IV surface, avidity model, CLAMP
[19] = target: human heat-denatured collagen type IV (human); assay: ELISA
[20] = target: denatured collagen type-I (human) (UniProt P02452); assay: ELISA
UniProt P02452, sequence (P02452 21-1464 V1081A/Q1391K, chain 1 of 2): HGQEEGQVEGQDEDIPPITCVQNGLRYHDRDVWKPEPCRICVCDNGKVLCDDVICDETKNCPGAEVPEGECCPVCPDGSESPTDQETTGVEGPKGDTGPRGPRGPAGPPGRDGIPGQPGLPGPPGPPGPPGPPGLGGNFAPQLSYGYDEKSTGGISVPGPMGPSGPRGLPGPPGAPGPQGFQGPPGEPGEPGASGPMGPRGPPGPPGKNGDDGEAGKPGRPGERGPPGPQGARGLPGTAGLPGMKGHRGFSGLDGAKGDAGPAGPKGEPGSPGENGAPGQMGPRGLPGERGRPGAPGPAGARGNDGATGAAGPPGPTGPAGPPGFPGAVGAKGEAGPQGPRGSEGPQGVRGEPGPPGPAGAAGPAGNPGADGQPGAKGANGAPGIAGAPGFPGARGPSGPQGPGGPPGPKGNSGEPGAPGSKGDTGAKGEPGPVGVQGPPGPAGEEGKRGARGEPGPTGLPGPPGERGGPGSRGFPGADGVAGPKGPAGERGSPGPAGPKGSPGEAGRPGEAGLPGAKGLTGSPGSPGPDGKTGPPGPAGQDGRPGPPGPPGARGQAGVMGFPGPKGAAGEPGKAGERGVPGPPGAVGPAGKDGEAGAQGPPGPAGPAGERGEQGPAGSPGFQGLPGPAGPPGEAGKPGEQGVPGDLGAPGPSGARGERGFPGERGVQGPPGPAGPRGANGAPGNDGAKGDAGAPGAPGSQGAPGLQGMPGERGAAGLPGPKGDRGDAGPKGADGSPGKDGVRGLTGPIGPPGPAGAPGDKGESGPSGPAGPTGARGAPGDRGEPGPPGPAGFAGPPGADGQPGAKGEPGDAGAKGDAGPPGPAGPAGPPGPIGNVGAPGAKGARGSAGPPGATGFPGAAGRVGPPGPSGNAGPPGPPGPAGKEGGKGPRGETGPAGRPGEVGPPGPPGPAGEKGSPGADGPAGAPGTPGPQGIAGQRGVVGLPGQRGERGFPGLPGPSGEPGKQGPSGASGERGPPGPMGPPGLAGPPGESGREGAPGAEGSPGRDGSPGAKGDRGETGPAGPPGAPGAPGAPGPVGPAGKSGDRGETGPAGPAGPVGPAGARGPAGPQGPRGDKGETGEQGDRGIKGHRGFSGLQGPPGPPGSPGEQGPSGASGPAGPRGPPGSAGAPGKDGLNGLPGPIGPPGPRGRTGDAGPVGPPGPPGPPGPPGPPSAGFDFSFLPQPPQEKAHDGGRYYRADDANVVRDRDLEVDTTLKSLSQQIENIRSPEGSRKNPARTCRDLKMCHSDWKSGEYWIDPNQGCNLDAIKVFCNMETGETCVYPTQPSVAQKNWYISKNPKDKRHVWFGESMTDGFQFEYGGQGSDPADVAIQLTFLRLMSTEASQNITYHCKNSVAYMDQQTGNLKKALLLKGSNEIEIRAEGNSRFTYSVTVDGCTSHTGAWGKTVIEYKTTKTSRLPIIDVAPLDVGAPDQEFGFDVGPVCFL
UniProt P02452, sequence (P02452 other isoform, or with tags, fused parts or gaps, chain 2 of 2): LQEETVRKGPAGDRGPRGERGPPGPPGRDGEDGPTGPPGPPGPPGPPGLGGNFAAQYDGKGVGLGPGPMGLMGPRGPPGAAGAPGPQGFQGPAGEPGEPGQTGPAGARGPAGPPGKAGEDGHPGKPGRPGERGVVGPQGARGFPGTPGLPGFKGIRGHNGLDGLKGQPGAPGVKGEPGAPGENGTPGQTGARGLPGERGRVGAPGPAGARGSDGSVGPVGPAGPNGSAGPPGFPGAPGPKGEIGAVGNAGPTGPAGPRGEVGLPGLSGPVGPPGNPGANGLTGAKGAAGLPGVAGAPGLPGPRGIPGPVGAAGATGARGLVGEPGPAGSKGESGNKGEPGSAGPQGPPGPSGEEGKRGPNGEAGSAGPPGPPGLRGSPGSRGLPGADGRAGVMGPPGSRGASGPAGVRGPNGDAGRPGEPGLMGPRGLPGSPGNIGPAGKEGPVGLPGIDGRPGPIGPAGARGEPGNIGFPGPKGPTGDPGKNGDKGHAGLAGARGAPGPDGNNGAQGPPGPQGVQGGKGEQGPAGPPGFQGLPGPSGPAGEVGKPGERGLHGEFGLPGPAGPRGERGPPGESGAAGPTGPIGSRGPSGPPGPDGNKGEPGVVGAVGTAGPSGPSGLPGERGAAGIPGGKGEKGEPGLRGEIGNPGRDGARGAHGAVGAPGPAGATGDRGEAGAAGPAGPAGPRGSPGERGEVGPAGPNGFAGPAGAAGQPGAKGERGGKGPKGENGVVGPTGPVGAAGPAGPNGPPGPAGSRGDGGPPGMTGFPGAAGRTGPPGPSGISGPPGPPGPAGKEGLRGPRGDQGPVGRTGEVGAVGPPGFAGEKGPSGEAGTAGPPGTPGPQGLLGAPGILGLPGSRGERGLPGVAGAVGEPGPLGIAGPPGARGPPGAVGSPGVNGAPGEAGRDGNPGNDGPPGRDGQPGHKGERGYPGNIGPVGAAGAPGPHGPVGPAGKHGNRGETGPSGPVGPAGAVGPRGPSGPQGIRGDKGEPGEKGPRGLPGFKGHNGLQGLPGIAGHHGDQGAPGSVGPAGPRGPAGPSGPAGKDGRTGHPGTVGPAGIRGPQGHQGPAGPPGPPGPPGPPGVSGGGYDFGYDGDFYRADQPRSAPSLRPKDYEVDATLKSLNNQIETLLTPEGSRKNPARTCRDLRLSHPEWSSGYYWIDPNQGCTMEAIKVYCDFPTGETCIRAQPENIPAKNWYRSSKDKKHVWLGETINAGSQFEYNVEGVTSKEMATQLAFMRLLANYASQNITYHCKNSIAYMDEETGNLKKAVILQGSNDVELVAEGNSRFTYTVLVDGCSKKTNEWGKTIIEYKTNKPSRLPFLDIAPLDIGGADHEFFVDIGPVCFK

[21] = target: human heat-denatured collagen type IV (human); assay: ELISA, wells coated with human heat-denatured collagen IV, anti-mouse IgM-HRP, read at 450 nm
denatured collagen III = assay: ELISA (data not shown)
[22] = target: human heat-denatured collagen type IV (human); assay: ELISA (data not shown)
denatured collagen V = assay: ELISA (data not shown)
[23] = target: denatured collagen type-I (human) (UniProt P02452); assay: cell-based or functional assay

human heat-denatured collagen type IV (human), sequence (P08572 other isoform, or with tags, fused parts or gaps): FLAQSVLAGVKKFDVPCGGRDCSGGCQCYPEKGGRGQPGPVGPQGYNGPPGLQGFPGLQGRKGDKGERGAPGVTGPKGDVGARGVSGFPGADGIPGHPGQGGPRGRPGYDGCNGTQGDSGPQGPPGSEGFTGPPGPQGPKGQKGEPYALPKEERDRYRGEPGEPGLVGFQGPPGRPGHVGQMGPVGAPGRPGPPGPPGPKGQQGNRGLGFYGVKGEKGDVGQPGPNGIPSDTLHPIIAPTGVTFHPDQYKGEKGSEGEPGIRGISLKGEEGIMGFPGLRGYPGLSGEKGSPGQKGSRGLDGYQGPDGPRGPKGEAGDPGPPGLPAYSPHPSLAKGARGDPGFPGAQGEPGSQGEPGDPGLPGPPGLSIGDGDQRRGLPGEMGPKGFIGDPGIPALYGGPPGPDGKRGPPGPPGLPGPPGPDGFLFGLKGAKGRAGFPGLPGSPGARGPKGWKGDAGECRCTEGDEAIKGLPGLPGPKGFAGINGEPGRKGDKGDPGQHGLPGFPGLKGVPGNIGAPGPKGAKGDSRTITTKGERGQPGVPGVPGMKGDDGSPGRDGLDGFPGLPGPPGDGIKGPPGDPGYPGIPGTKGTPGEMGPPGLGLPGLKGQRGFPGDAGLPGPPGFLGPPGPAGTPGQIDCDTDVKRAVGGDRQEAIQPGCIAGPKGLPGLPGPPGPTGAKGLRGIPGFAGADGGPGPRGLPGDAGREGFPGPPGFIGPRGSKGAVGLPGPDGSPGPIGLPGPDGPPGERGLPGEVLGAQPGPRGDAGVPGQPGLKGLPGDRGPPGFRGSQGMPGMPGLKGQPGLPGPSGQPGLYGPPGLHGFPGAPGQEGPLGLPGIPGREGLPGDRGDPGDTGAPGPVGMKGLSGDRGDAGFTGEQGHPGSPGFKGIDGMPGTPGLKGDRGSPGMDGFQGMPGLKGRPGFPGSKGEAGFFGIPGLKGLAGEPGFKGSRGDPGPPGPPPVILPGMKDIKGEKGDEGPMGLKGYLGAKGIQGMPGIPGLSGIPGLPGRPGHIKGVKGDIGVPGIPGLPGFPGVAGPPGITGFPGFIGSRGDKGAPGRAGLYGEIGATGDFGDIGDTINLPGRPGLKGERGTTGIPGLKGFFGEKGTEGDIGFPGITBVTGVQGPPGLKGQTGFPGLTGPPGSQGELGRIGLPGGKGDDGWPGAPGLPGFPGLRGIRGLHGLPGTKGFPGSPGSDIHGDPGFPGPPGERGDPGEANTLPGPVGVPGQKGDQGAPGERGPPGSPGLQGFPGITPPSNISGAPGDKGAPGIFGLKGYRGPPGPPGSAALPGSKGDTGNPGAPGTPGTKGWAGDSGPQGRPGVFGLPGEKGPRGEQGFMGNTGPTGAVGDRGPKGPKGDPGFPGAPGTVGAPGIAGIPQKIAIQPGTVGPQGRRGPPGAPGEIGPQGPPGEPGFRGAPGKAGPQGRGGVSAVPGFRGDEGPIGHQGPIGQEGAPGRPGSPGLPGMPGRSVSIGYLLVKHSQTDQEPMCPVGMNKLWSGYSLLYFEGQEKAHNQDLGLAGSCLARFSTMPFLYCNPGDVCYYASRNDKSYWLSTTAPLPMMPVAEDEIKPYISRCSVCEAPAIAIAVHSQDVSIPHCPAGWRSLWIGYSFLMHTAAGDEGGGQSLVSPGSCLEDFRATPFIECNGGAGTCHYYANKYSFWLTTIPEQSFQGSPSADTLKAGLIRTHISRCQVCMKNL

Kd [1]: 0.03 to 0.063 µM
ka2 [2]: 4.3e-06 RU s-1
kd2 [2]: 0.0024 s⁻¹
koff [3]: 0.52 s⁻¹
kon [3]: 42800 M⁻¹ s⁻¹
koff [4]: 0.21 s⁻¹
kon [4]: 26800 M⁻¹ s⁻¹
ka2 [5]: 1.8e-06 RU s-1
kd2 [5]: 0.0017 s⁻¹
Kd [6]: 10 µM
koff [7]: 0.038 s⁻¹
kon [7]: 5800 M⁻¹ s⁻¹
ka2 [8]: 6.6e-06 RU s-1
kd2 [8]: 0.014 s⁻¹
koff [9]: 0.057 s⁻¹
kon [9]: 41900 M⁻¹ s⁻¹
Kd [10]: 7.8 µM
Kd [11]: 6.5 µM
Kd [12]: 11 µM
Kd [13]: 1.3 µM
Kd [14]: 1.7 µM
ka2 [15]: 5.2e-06 RU s-1
kd2 [15]: 0.006 s⁻¹
koff [16]: 0.1 s⁻¹
kon [16]: 57800 M⁻¹ s⁻¹
ka2 [17]: 7.1e-06 RU s-1
kd2 [17]: 0.00099 s⁻¹
koff [18]: 0.33 s⁻¹
kon [18]: 32700 M⁻¹ s⁻¹
Substance: D93, recombinant humanized IgG1 kappa antibody targeting denatured-collagen

fold affinity, denatured over native collagen type-IV [19]: 10 fold
fold apparent reactivity, denatured over native collagen type-I [20]: > 10 fold
EC50 (read off the curve) [21]: 0.1 µg/mL
fold tighter binding, denatured over native form (denatured collagen III): 7 fold
fold tighter binding, denatured over native form [22]: 8 fold
fold tighter binding, denatured over native form (denatured collagen V): 10 fold
inhibition of human endothelial cell adhesion to denatured collagen type-I [23]: 40%
inhibition of human endothelial cell migration on denatured collagen-I [23]: 80%
Substance: HUI77, murine IgM anti-denatured-collagen monoclonal antibody

— US20080008707A1, “Denatured collagen peptides and uses thereof” (Cell-Matrix, Inc., priority 2006, published 2008)
